Each block holds one binder with its values, some of them ahead of it.
Columns and labels:
[1] = molecular target: T1, mouse CD8 (on CD8 T cells of mouse splenocytes) (mouse, UniProt P01731 28-247); experiment: flow cytometry on mouse splenocytes, gated cell types; IL2 loading detected with anti-IL2; median fluorescence intensity
T1 construct: whole, on cells; also called mCD8
Protocol: (§1) Anti-mouse CD8-human IL2 molecules were evaluated for their ability to specifically bind and load IL2 on CD8 T cells. Briefly, 1×10⁵ mouse splenocytes were incubated with indicated CD8-IL2 (human FC receptor) molecules from one of the concentrations ranging from 0.05 pM to 500 nM. Anti-mouse CD8 antibody was used as control. Following one hour incubation with molecules, splenocytes were washed twice with RPMI complete medium and once with PBS. The washed splenocytes were stained with anti-TL2 (MQ1-17H12), anti-human kappa (MHK-49) and lineage surface makers CD4(RM4-4), NK1.1(PK136) and CD19(6D5) for 20 minutes, after which the cells were washed and analyzed using flow cytometer. Mean fluorescence intensity data was analyzed using four parameter nonlinear regression method to calculated binding affinity in GraphPad prism.

[2] = molecular target: T1, mouse CD8 (on CD8 T cells of mouse …); experiment: flow cytometry on mouse splenocytes, CD8 T cells; bound molecule detected with anti-human kappa; median fluorescence intensity
Protocol: as §1

[3] = molecular target: T1, mouse CD8 (on CD8 T cells of mouse …); experiment: cell-based or functional assay
[4] = molecular target: T1, mouse CD8 (on CD8 T cells of mouse …); experiment: flow cytometry on mouse splenocytes, CD8 T cells; IL2 loading detected with anti-IL2; median fluorescence intensity
Protocol: as §1

[5] = molecular target: T2, human CD8 (on CD8 T cells of human PBMC) (human, UniProt P01732 22-235); experiment: cell-based or functional assay
T2 sequence (P01732 22-235 limits assumed): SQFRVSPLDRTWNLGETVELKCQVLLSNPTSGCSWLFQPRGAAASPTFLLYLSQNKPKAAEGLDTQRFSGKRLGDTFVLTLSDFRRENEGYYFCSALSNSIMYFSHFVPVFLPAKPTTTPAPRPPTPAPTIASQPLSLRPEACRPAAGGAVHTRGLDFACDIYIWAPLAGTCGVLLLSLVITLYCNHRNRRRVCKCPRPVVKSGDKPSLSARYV

[6] = molecular target: T2, human CD8 (on CD8 T cells of human PBMC); experiment: flow cytometry on human PBMC, CD8 T cells; bound molecule detected with anti-human kappa; MFI
Protocol: (§2) Anti-human CD8-human IL2 molecules were evaluated for their ability to specifically bind and load IL2 on CD8 T cells. Briefly, […] human PBMC were co-cultured with indicated CD8-IL2 (human FC receptor) molecules from one of the concentrations ranging from 0.05 pM to 0.4 nM. Following one hour incubation with molecules, PBMC were washed twice with RPMI complete medium and washed once with PBS. The washed cells were stained with anti-IL2 (MQ1-17H12), anti-human kappa (MHK-49) and lineage surface markers CD3(UCHT1), CD4(SK3) and NK(HCD56) for 20 minutes, after which the cells were washed and analyzed using a flow cytometer. The binding affinity was quantified and represented as mean fluorescence intensity (MFI).

[7] = molecular target: T2, human CD8 (on CD8 T cells of human PBMC); experiment: cell-based or functional assay; remark: listed apart in the source
[8] = molecular target: T2, human CD8 (on CD8 T cells of human PBMC); experiment: flow cytometry on human PBMC, gated cell types; IL2 loading detected with anti-IL2; MFI
Protocol: as §2

T1 sequence (P01731 28-247): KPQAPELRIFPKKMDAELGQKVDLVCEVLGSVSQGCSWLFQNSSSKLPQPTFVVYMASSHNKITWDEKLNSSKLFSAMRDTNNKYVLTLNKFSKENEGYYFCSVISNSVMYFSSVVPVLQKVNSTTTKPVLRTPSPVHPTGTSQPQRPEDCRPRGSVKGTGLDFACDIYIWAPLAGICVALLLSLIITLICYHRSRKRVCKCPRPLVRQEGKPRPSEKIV

EC50 (read off the curve) [1]: ~0.3 nM
EC50 (read off the curve) [2]: ~0.5 nM
Percentage of CD8 T Cell expansion at 32 pm [3]: 56.4%
Percentage of CD8 T Cell expansion at 160 pm [3]: 59.7%
EC50 (read off the curve) [4]: ~0.6 nM
B1: mCD8 Fab IL2 (LC) (YTS105) (Fab)
heavy: EVQLKESGPGLVQPSQTLSLTCTVSGFSLTSNSVHWVRQPPGKGLEWMGGIWGDGDTDYNSALKSRLSISRDTSKNQVFLKMNSLQTDDTAIYFCTPLIGSWYFDFWGPGTMVTASSASTKGPSVFPLAPSSKSTSGGTAALGCLVKDYFPEPVTVSWNSGALTSGVHTFPAVLQSSGLYSLSSVVTVPSSSLGTQTYICNVNHKPSNTKVDKKVEPKSC
light: not shown
notes: Anti-mouse CD8 Fab (clone YTS105) with human IL-2 fused to the C-terminus of the light chain

EC50 pSTAT5 Activation, CD8+ T cells [5]: 0.448 pM
EC50 (read off the curve) [6]: ~0.03 nM
EC50 of Proliferation (percentage Ki67), CD8+ T cells [7]: 0.0689 nM
EC50 (read off the curve) [8]: ~0.03 nM
B2: hCD8 IgG IL2 1x (HC) (VH6/VK3) (antibody)
heavy 1: not shown
heavy 2: EVQLVQSGAEVKKPGATVKISCKASGYTFTDFTMHWVQQAPGKGLEWIGLVNPNNGGNIYAEKFQGRVTLTVDTSTSTAYMELSSLRSEDTAVYYCGRVPLYTSHGMDYWGQGTLVTVSSASTKGPSVFPLAPSSKSTSGGTAALGCLVKDYFPEPVTVSWNSGALTSGVHTFPAVLQSSGLYSLSSVVTVPSSSLGTQTYICNVNHKPSNTKVDKKVEPKSCDKTHTCPPCPAPEAAGGPSVFLFPPKPKDTLMISRTPEVTCVVVDVSHEDPEVKFNWYVDGVEVHNAKTKPREEQYASTYRVVSVLTVLHQDWLNGKEYKCKVSNKALGAPIEKTISKAKGQPREPQVYTLPPSRDELTKNQVSLSCAVKGFYPSDIAVEWESNGQPENNYKTTPPVLDSDGSFFLVSKLTVDKSRWQQGNVFSCSVMHEALHNHYTQKSLSLSPGK
light: EIVLTQSPATLSLSPGERATISCRASESVDSYDINSMHWYQQKPGQAPRLLIYRASHLQSGIPARFSGSGSRTDFTLTISSLEPEDFATYYCQQSNEDPLTFGQGTKLEIKRTVAAPSVFIFPPSDEQLKSGTASVVCLLNNFYPREAKVQWKVDNALQSGNSQESVTEQDSKDSTYSLSSTLTLSKADYEKHKVYACEVTHQGLSSPVTKSFNRGEC
notes: Humanized 02A01 (VH6/VK3) anti-human CD8 IgG, knob-in-hole, one human IL-2 on the C-terminus of the knob heavy chain; also called hCD8 IgG IL2 1×(HC)

EC50 (read off the curve) [1]: ~0.4 nM
EC50 (read off the curve) [2]: ~0.7 nM
Percentage of CD8 T Cell expansion at 32 pm [3]: 56.1%
Percentage of CD8 T Cell expansion at 160 pm [3]: 60.6%
EC50 (read off the curve) [4]: ~0.8 nM
B3: mCD8 Fab Fc IL2 (LC) (YTS105) (antibody, human IgG1, kappa, L234A L235A, N297A)
heavy: EVQLKESGPGLVQPSQTLSLTCTVSGFSLTSNSVHWVRQPPGKGLEWMGGIWGDGDTDYNSALKSRLSISRDTSKNQVFLKMNSLQTDDTAIYFCTPLIGSWYFDFWGPGTMVTASSASTKGPSVFPLAPSSKSTSGGTAALGCLVKDYFPEPVTVSWNSGALTSGVHTFPAVLQSSGLYSLSSVVTVPSSSLGTQTYICNVNHKPSNTKVDKKVEPKSCDKTHTCPPCPAPEAAGGPSVFLFPPKPKDTLMISRTPEVTCVVVDVSHEDPEVKFNWYVDGVEVHNAKTKPREEQYASTYRVVSVLTVLHQDWLNGKEYKCKVSNKALGAPIEKTISKAKGQPREPQVYTLPPSRDELTKNQVSLWCLVKGFYPSDIAVEWESNGQPENNYKTTPPVLDSDGSFFLYSKLTVDKSRWQQGNVFSCSVMHEALHNHYTQKSLSLSPGK
chain: DKTHTCPPCPAPEAAGGPSVFLFPPKPKDTLMISRTPEVTCVVVDVSHEDPEVKFNWYVDGVEVHNAKTKPREEQYASTYRVVSVLTVLHQDWLNGKEYKCKVSNKALGAPIEKTISKAKGQPREPQVYTLPPSRDELTKNQVSLSCAVKGFYPSDIAVEWESNGQPENNYKTTPPVLDSDGSFFLVSKLTVDKSRWQQGNVFSCSVMHEALHNHYTQKSLSLSPGK
light: not shown
notes: One-armed Fab-Fc (clone YTS105) with human IL-2 on the C-terminus of the light chain; also called mCD8 Fc-IL2(LC); CD8Fc-IL2

EC50 (read off the curve) [1]: ~0.05 nM
EC50 (read off the curve) [2]: ~0.04 nM
Percentage of CD8 T Cell expansion at 32 pm [3]: 46.5%
Percentage of CD8 T Cell expansion at 160 pm [3]: 63.2%
EC50 (read off the curve) [4]: ~0.05 nM
B4: mCD8 IgG IL2 (HC) (YTS105) (antibody)
heavy: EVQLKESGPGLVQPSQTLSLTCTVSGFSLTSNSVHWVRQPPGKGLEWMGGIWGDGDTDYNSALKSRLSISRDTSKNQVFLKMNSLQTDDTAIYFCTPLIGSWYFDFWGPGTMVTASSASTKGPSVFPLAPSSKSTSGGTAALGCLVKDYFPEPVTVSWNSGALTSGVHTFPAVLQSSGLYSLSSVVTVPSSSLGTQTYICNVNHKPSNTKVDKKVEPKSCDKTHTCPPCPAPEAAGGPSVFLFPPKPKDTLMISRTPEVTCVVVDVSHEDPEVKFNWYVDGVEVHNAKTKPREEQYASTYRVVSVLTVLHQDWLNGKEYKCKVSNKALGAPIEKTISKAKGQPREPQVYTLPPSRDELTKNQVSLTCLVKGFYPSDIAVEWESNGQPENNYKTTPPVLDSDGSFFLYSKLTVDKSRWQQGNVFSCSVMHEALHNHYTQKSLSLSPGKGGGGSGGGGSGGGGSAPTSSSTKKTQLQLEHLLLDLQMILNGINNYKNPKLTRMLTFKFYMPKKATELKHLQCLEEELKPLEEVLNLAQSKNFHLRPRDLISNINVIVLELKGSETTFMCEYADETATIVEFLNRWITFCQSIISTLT
light: DIVMTQSPSSLAVSAGERVTLNCKASQNVRNNIAWYQQKPGQSPKLLIYYASYRYTGVPDRFTGDGFGTDFTLAINSVQADDAAFYYCQRIYNSPYTFGAGTKLELIRTVAAPSVFIFPPSDEQLKSGTASVVCLLNNFYPREAKVQWKVDNALQSGNSQESVTEQDSKDSTYSLSSTLTLSKADYEKHKVYACEVTHQGLSSPVTKSFNRGEC
notes: Anti-mouse CD8 IgG (clone YTS105) with human IL-2 on the C-terminus of each heavy chain

EC50 (read off the curve) [2]: ~0.04 nM
B5: mCD8IgG (anti-mouse CD8 antibody control, clone YTS105) (antibody, not shown: a dimerising Fc or GST)
heavy: B1 heavy
light: B4 light
notes: Control without IL-2

Source: patent US20260234258A1 (REPERTOIRE IMMUNE MEDICINES, published 2026)
